Experimental data reported in PMC5422253, “Cryo-EM Structure of a Relaxase Reveals the Molecular Basis of DNA Unwinding during Bacterial Conjugation”.

Assays:
TraI1-1475 = biological target: T1, TraI1-1475 (Escherichia coli conjugative plasmid R1?, UniProt Q6TDU5 1-1475); assay: size exclusion chromatography; after 365 nm photocleavage, peak V; Anisotropy: 10 nM 22-merAlexa488, 50 mM Tris pH 7.2, 100 mM NaCl, 25 C, 20 min; complexes for gel filtration: protein and ssDNA mixed on ice 10 min (stocks in 50 mM Tris pH 7.2, 100 mM NaCl); EPR complexes: PBS pH 7.4, 1 mM MgCl2; details: protein: recombinant; tags: N-terminal His6 with enterokinase site; label: 5'-Cy5; inverted repeat
T1 sequence: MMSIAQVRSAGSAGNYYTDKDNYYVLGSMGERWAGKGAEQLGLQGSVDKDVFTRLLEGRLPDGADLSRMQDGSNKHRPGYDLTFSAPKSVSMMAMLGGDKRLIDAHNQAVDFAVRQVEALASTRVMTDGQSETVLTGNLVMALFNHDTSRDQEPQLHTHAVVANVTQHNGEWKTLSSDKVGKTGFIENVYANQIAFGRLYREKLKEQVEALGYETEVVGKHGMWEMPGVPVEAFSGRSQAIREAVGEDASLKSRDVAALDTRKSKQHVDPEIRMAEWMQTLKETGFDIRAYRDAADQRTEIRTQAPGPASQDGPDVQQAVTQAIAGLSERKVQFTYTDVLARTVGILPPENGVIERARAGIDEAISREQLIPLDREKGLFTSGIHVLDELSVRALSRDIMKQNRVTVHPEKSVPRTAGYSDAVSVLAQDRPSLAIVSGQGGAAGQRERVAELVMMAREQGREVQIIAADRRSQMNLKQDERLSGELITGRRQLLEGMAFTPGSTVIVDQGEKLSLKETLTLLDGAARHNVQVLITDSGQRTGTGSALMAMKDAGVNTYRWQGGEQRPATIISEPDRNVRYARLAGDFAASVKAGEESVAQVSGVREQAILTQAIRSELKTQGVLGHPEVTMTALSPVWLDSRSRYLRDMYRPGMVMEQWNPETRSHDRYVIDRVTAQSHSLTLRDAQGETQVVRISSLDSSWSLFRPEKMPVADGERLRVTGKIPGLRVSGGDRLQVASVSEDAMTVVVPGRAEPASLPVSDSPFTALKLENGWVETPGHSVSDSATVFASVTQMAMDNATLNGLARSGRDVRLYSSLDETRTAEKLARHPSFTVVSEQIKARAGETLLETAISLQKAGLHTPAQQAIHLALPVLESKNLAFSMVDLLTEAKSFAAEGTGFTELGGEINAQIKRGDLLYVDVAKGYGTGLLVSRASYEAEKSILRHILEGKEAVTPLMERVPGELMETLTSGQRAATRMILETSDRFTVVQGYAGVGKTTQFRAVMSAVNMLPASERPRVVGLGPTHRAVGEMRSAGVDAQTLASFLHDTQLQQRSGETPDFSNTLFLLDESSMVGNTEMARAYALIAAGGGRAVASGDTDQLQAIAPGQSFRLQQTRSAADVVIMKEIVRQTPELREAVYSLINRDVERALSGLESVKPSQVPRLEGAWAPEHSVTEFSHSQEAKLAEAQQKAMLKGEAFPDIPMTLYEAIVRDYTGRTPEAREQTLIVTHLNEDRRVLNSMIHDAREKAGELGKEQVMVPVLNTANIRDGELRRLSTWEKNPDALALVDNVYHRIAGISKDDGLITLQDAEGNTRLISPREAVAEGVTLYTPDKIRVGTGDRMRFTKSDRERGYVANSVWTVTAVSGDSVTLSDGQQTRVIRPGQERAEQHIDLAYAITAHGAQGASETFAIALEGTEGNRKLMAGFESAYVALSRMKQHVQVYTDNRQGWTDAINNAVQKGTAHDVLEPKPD

TraI relaxase wild-type [1] = biological target: T2, TraI relaxase wild-type (Escherichia coli conjugative plasmid R1 …, UniProt Q6TDU5 1-1756); assay: limited trypsin proteolysis; open, protease-sensitive conformer; Anisotropy: 10 nM 22-merAlexa488, 50 mM Tris pH 7.2, 100 mM NaCl, 25 C, 20 min; complexes for gel filtration: protein and ssDNA mixed on ice 10 min (stocks in 50 mM Tris pH 7.2, 100 mM NaCl); EPR complexes: PBS pH 7.4, 1 mM MgCl2; details: protein: recombinant; tags: N-terminal His6 with enterokinase site; inverted repeat
TraI A1105W/M795A = TraI A1105W/M795A (Escherichia coli conjugative plasmid R1?, UniProt Q6TDU5 1-1756, A1105W;M795A); assay: fluorescence anisotropy; higher affinity than the single mutants A1105W and M795A; Kd only in figure; Anisotropy: 10 nM 22-merAlexa488, 50 mM Tris pH 7.2, 100 mM NaCl, 25 C, 20 min; complexes for gel filtration: protein and ssDNA mixed on ice 10 min (stocks in 50 mM Tris pH 7.2, 100 mM NaCl); EPR complexes: PBS pH 7.4, 1 mM MgCl2; details: protein: recombinant; tags: N-terminal His6 with enterokinase site; label: 3'-Alexa488
TraI-MBP = TraI-MBP (Escherichia coli conjugative plasmid R1?, UniProt Q6TDU5 1-1756); assay: size exclusion chromatography; after 365 nm photocleavage, peak IV; Anisotropy: 10 nM 22-merAlexa488, 50 mM Tris pH 7.2, 100 mM NaCl, 25 C, 20 min; complexes for gel filtration: protein and ssDNA mixed on ice 10 min (stocks in 50 mM Tris pH 7.2, 100 mM NaCl); EPR complexes: PBS pH 7.4, 1 mM MgCl2; details: protein: recombinant; tags: N-terminal His6 with enterokinase site; C-terminal MBP via TPGSP linker; label: 3'-6-FAM
TraI relaxase wild-type [2] = biological target: T2, TraI relaxase wild-type; assay: limited trypsin proteolysis; 1:1 complex; pattern as with 22-mer; Anisotropy: 10 nM 22-merAlexa488, 50 mM Tris pH 7.2, 100 mM NaCl, 25 C, 20 min; complexes for gel filtration: protein and ssDNA mixed on ice 10 min (stocks in 50 mM Tris pH 7.2, 100 mM NaCl); EPR complexes: PBS pH 7.4, 1 mM MgCl2; details: protein: recombinant; tags: N-terminal His6 with enterokinase site
TraI relaxase wild-type [3] = biological target: T2, TraI relaxase wild-type; assay: size exclusion chromatography; protein:ssDNA 1:1, 2:1, 4:1; TraI dimer forms on 49-mer; Anisotropy: 10 nM 22-merAlexa488, 50 mM Tris pH 7.2, 100 mM NaCl, 25 C, 20 min; complexes for gel filtration: protein and ssDNA mixed on ice 10 min (stocks in 50 mM Tris pH 7.2, 100 mM NaCl); EPR complexes: PBS pH 7.4, 1 mM MgCl2; details: protein: recombinant; tags: N-terminal His6 with enterokinase site; inverted repeat 5' of nic

## GCAAAAACTTGTTTTTGCGTGGGGTGTGGT (ssDNA, 3' end from PC linker photocleavage) [Cy5-30-mer photocleavage product]
TraI1-1475
  binding result: binds

## GCAAAAACTTGTTTTTGCGTGGGGTGTGGT (ssDNA) [30-mer]
TraI relaxase wild-type [1]
  binding result: binds

## GGTGCTTTTGGTGGTGAGAACC (ssDNA) [22-merAlexa488]
TraI A1105W/M795A
  binding result: binds

## GCTTTTGGTGGTGAGAACC (ssDNA, 5' end from PC linker photocleavage) [19-mer-6-FAM photocleavage product]
TraI-MBP
  binding result: binds

## GCTTTTGGTGGTGAGAACC (ssDNA) [19-mer]
TraI relaxase wild-type [2]
  binding result: binds

## GCAAAAACTTGTTTTTGCGTGGGGTGTGGTGCTTTTGGTGGTGAGAACC (ssDNA) [49-mer oriT]
TraI relaxase wild-type [3]
  binding result: binds
